Source: patent publication US20020156245A1 (Genentech, published 2002)

T1: human Ptch-2 (SEQ ID NO:2) (human, UniProt Q9Y6C5 1-1203)
T1 construct: Its length is printed as 1203 residues in some places and 1204 in others; also called hPtch-2; patched-2
T1 sequence: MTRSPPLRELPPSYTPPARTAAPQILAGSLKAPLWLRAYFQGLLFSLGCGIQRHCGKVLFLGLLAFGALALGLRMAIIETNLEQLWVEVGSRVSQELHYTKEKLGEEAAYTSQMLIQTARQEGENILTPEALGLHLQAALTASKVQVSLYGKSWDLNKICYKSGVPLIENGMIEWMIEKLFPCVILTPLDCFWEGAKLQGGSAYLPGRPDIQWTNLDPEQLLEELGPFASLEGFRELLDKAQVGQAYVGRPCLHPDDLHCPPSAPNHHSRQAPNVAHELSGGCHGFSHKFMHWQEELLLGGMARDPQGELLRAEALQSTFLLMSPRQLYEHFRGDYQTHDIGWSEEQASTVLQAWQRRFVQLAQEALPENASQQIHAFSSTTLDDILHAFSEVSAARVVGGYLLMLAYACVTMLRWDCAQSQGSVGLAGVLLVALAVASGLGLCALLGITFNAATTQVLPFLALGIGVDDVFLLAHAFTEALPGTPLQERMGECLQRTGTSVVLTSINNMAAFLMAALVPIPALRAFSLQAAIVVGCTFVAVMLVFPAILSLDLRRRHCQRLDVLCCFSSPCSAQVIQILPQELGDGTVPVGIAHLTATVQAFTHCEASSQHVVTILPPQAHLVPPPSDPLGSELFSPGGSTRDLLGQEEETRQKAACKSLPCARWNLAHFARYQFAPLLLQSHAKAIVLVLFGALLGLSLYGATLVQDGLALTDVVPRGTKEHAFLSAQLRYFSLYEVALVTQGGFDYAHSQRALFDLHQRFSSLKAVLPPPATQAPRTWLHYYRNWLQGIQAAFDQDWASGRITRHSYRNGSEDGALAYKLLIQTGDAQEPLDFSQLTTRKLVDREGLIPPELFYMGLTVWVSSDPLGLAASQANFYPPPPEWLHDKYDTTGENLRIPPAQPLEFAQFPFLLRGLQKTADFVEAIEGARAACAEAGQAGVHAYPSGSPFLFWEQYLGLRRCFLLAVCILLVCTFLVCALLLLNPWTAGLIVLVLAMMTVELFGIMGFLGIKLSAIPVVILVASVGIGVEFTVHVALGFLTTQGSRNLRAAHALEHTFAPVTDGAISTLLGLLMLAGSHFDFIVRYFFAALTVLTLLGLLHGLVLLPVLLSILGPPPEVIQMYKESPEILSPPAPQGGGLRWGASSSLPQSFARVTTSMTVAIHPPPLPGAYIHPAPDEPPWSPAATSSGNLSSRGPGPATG

B1: Dhh (SEQ ID NO:13) (ligand)
chain: not shown
notes: also called Desert Hh; Desert hedgehog
B2: Ihh (SEQ ID NO:29) (ligand)
chain: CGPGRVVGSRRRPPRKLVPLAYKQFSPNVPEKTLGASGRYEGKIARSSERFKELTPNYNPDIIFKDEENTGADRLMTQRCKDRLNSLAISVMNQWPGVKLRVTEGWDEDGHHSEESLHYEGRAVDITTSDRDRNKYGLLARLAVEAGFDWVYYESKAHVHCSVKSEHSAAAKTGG
notes: also called Indian Hh

Target: T1, human Ptch-2 (SEQ ID NO:2)
Assay: Scatchard analysis of displacement of 125I-Shh from 293 cells expressing Ptch-2
Procedure: As shown on FIG. 7A, binding of ¹²⁵I-Shh can be competed with an excess of Shh, Dhh or Ihh (SEQ ID NOS: 14, 13, and 29, respectively).
To determine whether Ptch-2 is able to bind to the various hedgehog ligands, 293 cells were transfected with Ptch (SEQ ID NO:4) or Ptch-2 (SEQ ID NO:2) using standard procedures. Cells were incubated with 100 pM ¹²⁵I-Shh (19 kD amino terminal fragment of murine Shh (SEQ ID NO:14)) in the presence or absence of excess unlabeled Shh (SEQ ID NO:14) or Dhh (SEQ ID NO:13) for 2 h at room temperature. After equilibrium was reached, the ligand bound cells were centrifuged through a continuous sucrose gradient to separate unincorporated and then counted in a scintillation counter. […] Varying concentrations of cold competitor indicate that the 2 ligands have similar affinity for Ptch (SEQ ID NO:4) and Ptch-2 (SEQ ID NO:2).

Binder | Kd
B1 | 0.6 nM
B2 | 0.4 nM
